Assay type in all cases: biochemical, Bacteroides thetaiotaomicron
Holding throughout (details): 50 mM HEPES pH 7.0, 5 mM MgCl2, 37 °C

Substrate in data set [1]: O=P(O)(O)OC[C@H]1O[C@@](CO)(O[C@H]2O[C@H](CO)[C@@H](O)[C@H](O)[C@H]2O)[C@@H](O)[C@@H]1O
The data set is described as follows: initial rates, phosphate release.

Substrate in data set [2]: O=P(O)(O)OC[C@@H](O)[C@@H](O)[C@H](O)[C@@H](O)CO
The data set is described as follows: initial rates, phosphate release.

Substrate in data set [3]: Cc1ncc(COP(=O)(O)O)c(C=O)c1O
The data set is described as follows: initial rates, phosphate release.

Substrate in data set [4]: O=P(O)(O)OC[C@H]1O[C@H](O[C@H]2O[C@H](CO)[C@@H](O)[C@H](O)[C@H]2O)[C@H](O)[C@@H](O)[C@@H]1O
The data set is described as follows: initial rates, phosphate release.

Substrate in data set [5]: Nc1ncnc2c1ncn2[C@@H]1O[C@H](COP(=O)(O)OP(=O)(O)O)[C@@H](O)[C@H]1O
The data set is described as follows: initial rates, phosphate release.

Substrate in data set [6]: O=P(O)(O)OCC(O)CO
The data set is described as follows: initial rates, phosphate release.

Substrate in the data set “purified protein”: O=[N+]([O-])c1ccc(OP(=O)(O)O)cc1
The data set is described as follows: purified protein.

B1: BT1666 (Bacteroides thetaiotaomicron VPI-5482) (protein)
chain: MIKVLLLDVDGTLLSFETHKVSQSSIDALKKVHDSGIKIVIATGRAASDLHEIDAVPYDGVIALNGAECVLRDGSVIRKVAIPAQDFRKSMELAREFDFAVALELNEGVFVNRLTPTVEQIAGIVEHPVPPVVDIEEMFERKECCQLCFYFDEEAEQKVMPLLSGLSATRWHPLFADVNVAGTSKATGLSLFADYYRVKVSEIMACGDGGNDIPMLKAAGIGVAMGNASEKVQSVADFVTDTVDNSGLYKALKHFGVI
Usually kcat stands for the maximal rate divided by the concentration of active sites. A word on the kcat/Km: it is the turnover number divided by the Michaelis constant. As to B1, the Km is listed as 1.4 ± 0.3 mM in data set [1]; 6.5 ± 3 mM in data set [2]; 4.1 ± 0.5 mM in data set [3]; 2.2 ± 0.4 mM in data set [4]; 1.0 (± 2) × 10^1 mM in data set [5]; 5.3 ± 0.7 mM in data set [6]. Besides, the Km in “purified protein” was 0.51 ± 0.1 mM. In addition, the kcat in data set [1] turned out to be 0.11 ± 0.01 s⁻¹; in data set [2], 0.42 ± 0.06 s⁻¹; in data set [3], 0.29 ± 0.01 s⁻¹; in data set [4], 0.3 ± 0.03 s⁻¹; in data set [5] it was 0.45 ± 0.06 s⁻¹; in data set [6], 0.42 ± 0.03 s⁻¹. Besides, in “purified protein”, the kcat was found to be 0.055 ± 0.007 s⁻¹. The kcat/Km worked out at 79 M⁻¹ s⁻¹ in data set [1]; 65 M⁻¹ s⁻¹ in data set [2]; 70 M⁻¹ s⁻¹ in data set [3]; 140 M⁻¹ s⁻¹ in data set [4]; 45 M⁻¹ s⁻¹ in data set [5]; 79 M⁻¹ s⁻¹ in data set [6]. Further, the kcat/Km in the data set “purified protein” amounted to 110 M⁻¹ s⁻¹.

(Values after PMC3356575.)
